In test [1] the target is recombinant monomeric HIV-1 YU2 gp120, produced in Drosophila S2 cells (HIV-1 YU2) (UniProt P35961). As to the kind of experiment: SPR, Biacore 3000, from the response at 300 nM against the 33 RU expected for 1:1.
For test [2] the target is unchanged. As to the kind of experiment: competition ELISA on plate-adsorbed YU2 gp120; competitor mAb 2G12 at 50 ug/ml; percent of control without CVN. Background: In an ELISA, binding on a coated surface is turned into a signal by an enzyme label.
The target is the same in test [3]. In words: ELISA, 100 ng YU2 gp120 adsorbed on the plate, serial dilutions of CVN, detection with polyclonal anti-CVN, BSA background subtracted.
Test [4] shares this target. As to the kind of experiment: SPR, Biacore 3000, about 250 RU YU2 gp120 amine-coupled to CM5 chip, CVN in flow, 2B6R reference cell. (In general: SPR reads the build-up and loss of mass on a sensor chip optically.)
In test [5] the target is gp120 on HIV-1 BaL (R5) virus (HIV-1 BaL). In words: cell-based or functional assay.

On to “cyanovirin-N (CVN), recombinant, periplasmic expression in E. coli, hexa-histidine tagged (from UniProt P81180 1-101)”, for which, in test [1], the binding stoichiometry (CVN:gp120) was found to be 3. Besides, the IC50 (read off the curve) in test [2] is 30 nM. Further, in test [3], the concentration giving a half-maximal response (EC50 (read off the curve)) (usually the midpoint of the concentration-response curve) was 10 nM. The SPR response at 300 nM in test [4] was 95 RU.

As for “unlinked CVN and 12p1 (non-covalent mixture) (from UniProt P81180 1-101)”, in test [5], the boost of efficacy (% inhibition of HIV-1 BaL) of the mixture against CVN alone at the two lowest concentrations, 12p1 at 16-31 uM stood at 2 fold; the synergy index of the combination of CVN and 12p1, inhibition of HIV-1 BaL replication in PM-1 cells (gp120 ELISA after 7 days) is 0.3 to 0.5.

The record behind these values is patent US20090233850A1.
